Here are results for six molecules from paper PMC4389316, “C-terminal residues of skeletal muscle calsequestrin are essential for calcium binding and for skeletal ryanodine receptor inhibition” (Skeletal Muscle, 2015).

Assay [1] addresses junctin. As to the kind of experiment: co-immunoprecipitation (CSQ1 IP, Western blot densitometry). The settings on record: 1 mM Ca2+; parent: est. 100; read off a plot. On the technique in general: A western blot detects proteins with antibodies after separation by electrophoresis.
Assay [2] addresses ryanodine receptor type 1 (RyR1), purified (rabbit (endogenous in skeletal muscle …, UniProt P11716 1-5037)). Kind of assay: cell-based or functional assay.
Assay [3] addresses T1, skeletal triadin 95 kDa (trisk95) (rabbit (endogenous in skeletal muscle …, UniProt Q28820 1-706)).
T1 construct: triadin, skeletal muscle 95 kDa isoform, isolated from SR vesicles of New Zealand White rabbit back and leg muscle; also called triadin skeletal muscle 95 kDa; source: purified from rabbit skeletal SR vesicles (SDS preparative gel electrophoresis)
T1 sequence (looked up): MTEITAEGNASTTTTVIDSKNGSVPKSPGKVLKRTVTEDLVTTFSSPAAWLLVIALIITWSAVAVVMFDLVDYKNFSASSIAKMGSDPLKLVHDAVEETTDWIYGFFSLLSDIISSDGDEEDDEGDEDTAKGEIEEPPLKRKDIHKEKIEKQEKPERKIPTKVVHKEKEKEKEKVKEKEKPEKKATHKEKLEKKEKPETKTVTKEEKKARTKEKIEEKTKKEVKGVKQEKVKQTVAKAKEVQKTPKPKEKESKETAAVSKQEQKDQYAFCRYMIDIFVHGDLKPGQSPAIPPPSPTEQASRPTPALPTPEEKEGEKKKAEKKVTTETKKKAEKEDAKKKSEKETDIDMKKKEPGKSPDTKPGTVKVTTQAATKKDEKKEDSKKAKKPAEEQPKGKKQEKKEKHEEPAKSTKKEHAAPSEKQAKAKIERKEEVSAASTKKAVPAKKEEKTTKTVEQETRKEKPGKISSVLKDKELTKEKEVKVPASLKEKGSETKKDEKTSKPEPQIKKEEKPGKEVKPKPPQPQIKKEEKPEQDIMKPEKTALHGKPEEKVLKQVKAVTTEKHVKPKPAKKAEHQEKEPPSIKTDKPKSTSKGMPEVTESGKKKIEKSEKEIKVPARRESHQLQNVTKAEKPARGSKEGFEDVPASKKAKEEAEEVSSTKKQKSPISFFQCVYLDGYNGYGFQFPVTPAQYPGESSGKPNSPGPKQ
As to the kind of experiment: co-IP; purified CSQ1 construct coupled to anti-CSQ1/protein A/G agarose (Pierce kit), then exposed to purified trisk95 or junctin; 20 mM MOPS, 150 mM NaCl, 1 mM CaCl2, pH 7.4; CSQ1 to partner 2:1 by weight; Western blot. The following applies: both partners purified.

Chain of ryanodine receptor type 1 (RyR1), purified (rabbit (P11716 whole entry): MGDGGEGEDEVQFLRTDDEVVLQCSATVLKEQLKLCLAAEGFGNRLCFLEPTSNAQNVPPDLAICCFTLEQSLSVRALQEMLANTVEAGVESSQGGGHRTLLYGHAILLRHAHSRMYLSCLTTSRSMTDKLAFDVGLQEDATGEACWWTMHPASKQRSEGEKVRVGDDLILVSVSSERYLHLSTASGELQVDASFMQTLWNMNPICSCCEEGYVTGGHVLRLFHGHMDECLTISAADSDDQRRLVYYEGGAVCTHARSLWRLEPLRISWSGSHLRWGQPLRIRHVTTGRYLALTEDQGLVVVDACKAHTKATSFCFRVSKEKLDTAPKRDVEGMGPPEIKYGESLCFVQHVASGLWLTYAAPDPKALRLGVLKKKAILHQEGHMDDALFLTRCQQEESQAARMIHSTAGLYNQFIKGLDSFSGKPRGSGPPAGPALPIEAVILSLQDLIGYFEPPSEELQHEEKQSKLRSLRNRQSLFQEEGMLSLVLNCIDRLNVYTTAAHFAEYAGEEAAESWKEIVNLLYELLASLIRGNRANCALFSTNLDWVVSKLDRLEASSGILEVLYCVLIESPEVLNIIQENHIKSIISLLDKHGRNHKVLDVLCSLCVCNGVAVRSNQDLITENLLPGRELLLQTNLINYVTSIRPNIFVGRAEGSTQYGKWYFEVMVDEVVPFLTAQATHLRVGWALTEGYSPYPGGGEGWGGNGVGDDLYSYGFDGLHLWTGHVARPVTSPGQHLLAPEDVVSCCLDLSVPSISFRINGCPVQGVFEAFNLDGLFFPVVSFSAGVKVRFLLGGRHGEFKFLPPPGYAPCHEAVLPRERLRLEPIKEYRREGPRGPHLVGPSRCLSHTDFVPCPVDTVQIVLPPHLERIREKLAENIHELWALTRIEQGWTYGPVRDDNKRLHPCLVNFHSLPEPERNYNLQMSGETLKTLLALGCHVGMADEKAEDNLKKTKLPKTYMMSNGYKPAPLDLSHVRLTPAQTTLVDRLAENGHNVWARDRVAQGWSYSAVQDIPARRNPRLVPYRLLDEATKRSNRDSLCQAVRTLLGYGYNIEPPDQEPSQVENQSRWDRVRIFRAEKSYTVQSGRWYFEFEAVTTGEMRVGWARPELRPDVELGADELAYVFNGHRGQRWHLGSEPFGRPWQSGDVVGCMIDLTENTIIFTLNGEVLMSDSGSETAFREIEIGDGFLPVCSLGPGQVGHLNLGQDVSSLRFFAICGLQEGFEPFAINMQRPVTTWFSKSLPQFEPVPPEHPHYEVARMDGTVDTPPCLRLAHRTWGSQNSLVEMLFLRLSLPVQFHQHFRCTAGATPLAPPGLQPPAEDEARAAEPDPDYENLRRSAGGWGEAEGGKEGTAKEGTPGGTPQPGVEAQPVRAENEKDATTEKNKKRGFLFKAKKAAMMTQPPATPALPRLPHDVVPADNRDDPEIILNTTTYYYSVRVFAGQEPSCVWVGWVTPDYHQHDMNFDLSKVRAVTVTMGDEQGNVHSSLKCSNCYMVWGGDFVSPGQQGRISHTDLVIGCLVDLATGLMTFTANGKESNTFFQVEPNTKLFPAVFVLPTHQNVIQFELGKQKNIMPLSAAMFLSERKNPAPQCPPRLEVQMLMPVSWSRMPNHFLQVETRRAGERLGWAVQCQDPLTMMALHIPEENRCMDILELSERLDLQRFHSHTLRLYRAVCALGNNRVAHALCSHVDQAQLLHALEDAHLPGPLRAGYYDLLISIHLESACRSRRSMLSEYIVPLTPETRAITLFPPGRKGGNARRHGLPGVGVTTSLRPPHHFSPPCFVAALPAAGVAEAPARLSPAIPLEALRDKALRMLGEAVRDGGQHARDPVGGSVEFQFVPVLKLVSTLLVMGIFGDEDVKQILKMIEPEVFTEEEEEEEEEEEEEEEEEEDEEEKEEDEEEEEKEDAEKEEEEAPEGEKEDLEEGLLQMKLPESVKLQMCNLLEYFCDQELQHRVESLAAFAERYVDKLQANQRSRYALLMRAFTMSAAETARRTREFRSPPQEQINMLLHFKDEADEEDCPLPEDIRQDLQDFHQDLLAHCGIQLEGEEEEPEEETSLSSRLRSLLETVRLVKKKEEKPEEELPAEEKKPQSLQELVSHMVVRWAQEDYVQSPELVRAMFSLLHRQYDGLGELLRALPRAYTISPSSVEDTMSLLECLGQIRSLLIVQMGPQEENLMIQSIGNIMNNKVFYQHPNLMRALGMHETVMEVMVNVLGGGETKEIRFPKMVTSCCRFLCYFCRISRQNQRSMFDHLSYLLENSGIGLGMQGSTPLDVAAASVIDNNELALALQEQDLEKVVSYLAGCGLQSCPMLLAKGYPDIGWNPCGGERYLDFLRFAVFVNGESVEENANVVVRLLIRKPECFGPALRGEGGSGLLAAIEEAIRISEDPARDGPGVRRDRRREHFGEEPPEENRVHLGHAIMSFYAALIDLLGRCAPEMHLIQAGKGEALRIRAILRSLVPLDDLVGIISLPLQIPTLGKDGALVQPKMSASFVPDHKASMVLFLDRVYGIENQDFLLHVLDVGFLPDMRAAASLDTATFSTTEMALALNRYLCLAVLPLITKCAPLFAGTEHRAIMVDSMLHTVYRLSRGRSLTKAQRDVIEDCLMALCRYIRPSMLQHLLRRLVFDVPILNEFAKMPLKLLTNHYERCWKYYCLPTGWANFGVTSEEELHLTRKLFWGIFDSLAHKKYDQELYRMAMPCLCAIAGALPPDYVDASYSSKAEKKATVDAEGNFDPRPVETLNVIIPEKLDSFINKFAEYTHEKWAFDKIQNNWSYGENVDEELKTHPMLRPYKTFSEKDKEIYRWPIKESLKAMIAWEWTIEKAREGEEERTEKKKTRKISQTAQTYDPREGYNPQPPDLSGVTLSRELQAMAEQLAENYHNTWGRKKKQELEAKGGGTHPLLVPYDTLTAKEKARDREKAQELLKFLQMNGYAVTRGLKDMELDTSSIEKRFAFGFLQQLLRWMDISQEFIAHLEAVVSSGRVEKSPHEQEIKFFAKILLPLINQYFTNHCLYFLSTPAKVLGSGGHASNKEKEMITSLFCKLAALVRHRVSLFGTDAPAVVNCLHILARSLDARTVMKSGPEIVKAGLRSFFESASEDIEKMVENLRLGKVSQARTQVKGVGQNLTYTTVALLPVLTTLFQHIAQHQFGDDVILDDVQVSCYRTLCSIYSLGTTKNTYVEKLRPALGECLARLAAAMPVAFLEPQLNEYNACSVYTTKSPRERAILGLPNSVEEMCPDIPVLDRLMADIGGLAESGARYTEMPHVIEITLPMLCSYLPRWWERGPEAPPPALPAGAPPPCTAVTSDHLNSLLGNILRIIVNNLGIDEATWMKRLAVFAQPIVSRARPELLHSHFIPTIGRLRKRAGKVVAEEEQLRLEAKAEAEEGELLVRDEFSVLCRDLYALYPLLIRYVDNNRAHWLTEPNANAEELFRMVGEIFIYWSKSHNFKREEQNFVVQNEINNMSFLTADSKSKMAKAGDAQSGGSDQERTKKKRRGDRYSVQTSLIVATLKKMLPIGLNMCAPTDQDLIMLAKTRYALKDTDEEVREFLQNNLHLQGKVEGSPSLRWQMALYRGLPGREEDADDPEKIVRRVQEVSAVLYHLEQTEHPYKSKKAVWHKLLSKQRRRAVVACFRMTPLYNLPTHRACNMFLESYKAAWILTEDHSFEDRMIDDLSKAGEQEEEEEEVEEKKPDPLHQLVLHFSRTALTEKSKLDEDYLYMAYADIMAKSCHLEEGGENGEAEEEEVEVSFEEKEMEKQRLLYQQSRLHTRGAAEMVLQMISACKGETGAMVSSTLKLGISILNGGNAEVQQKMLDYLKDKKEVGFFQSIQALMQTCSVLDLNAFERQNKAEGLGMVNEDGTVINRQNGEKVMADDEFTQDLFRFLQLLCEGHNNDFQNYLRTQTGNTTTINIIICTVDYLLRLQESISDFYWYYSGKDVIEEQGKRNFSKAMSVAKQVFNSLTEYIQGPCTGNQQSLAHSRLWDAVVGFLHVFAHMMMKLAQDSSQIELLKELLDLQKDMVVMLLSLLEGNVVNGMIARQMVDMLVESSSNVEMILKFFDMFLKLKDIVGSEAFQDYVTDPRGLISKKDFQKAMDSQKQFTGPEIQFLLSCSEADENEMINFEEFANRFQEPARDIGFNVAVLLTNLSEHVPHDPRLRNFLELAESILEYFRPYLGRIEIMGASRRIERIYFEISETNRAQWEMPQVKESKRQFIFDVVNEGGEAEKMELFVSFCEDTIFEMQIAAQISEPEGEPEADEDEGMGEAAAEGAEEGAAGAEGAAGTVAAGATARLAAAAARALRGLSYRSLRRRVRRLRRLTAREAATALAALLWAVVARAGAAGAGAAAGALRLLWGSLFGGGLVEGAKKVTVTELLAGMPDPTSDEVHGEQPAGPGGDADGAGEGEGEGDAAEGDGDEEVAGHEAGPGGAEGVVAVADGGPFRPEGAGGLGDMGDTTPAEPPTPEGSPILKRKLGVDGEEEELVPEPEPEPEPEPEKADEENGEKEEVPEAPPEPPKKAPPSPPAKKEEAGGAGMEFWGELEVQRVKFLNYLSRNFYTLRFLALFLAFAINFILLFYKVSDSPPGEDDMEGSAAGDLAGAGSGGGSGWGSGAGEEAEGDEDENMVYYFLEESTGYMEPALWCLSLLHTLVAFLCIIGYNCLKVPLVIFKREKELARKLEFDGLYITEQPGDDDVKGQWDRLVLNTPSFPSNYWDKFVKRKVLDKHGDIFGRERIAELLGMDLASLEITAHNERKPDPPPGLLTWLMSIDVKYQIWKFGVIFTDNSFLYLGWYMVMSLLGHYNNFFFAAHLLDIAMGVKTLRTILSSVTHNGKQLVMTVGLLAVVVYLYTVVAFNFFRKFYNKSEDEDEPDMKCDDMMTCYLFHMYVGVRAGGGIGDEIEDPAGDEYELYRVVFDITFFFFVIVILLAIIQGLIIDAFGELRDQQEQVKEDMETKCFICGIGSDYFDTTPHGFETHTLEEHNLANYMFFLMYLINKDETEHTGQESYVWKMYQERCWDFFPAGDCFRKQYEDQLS

Consider “wild-type (WT) calsequestrin type 1 (CSQ1), rabbit (from UniProt P07221) D363A; D365A; D367A”, for which the percent of parent (% relative binding) in assay [1] was 92.

For “wild-type (WT) calsequestrin type 1 (CSQ1), rabbit (from UniProt P07221) D365A; D367A”, in assay [1], the percent of parent (% relative binding) came to 110.

For “wild-type (WT) calsequestrin type 1 (CSQ1), rabbit (from UniProt P07221) D367A”, the percent of parent (% relative binding) in assay [1] was determined as 110.

B1: CSQ1_(∆C14) (rabbit CSQ1 lacking the whole C-terminal tail, residues 354-367) (domain or fragment, UniProt P07221 29-381, looked up)
chain: EEGLDFPEYDGVDRVINVNAKNYKNVFKKYEVLALLYHEPPEDDKASQRQFEMEELILELAAQVLEDKGVGFGLVDSEKDAAVAKKLGLTEEDSIYVFKEDEVIEYDGEFSADTLVEFLLDVLEDPVELIEGERELQAFENIEDEIKLIGYFKNKDSEHYKAFKEAAEEFHPYIPFFATFDSKVAKKLTLKLNEIDFYEAFMEEPVTIPDKPNSEEEIVNFVEEHRRSTLRKLKPESMYETWEDDMDGIHIVAFAEEADPDGYEFLEILKSVAQDNTDNPDLSIIWIDPDDFPLLVPYWEKTFDIDLSAPQIGVVNVTDADSVWMEMDDEEDLPSAEELEDWLEDVLEGEINT
For the molecule B1, the “rise in activity (open probability) of purified RyR1 in lipid bilayers after trans addition of CSQ1∆C14” value in assay [2] was approximately 1.9 fold.

B2: wild-type (WT) calsequestrin type 1 (CSQ1), rabbit (natural protein, UniProt P07221 29-395, looked up)
chain: EEGLDFPEYDGVDRVINVNAKNYKNVFKKYEVLALLYHEPPEDDKASQRQFEMEELILELAAQVLEDKGVGFGLVDSEKDAAVAKKLGLTEEDSIYVFKEDEVIEYDGEFSADTLVEFLLDVLEDPVELIEGERELQAFENIEDEIKLIGYFKNKDSEHYKAFKEAAEEFHPYIPFFATFDSKVAKKLTLKLNEIDFYEAFMEEPVTIPDKPNSEEEIVNFVEEHRRSTLRKLKPESMYETWEDDMDGIHIVAFAEEADPDGYEFLEILKSVAQDNTDNPDLSIIWIDPDDFPLLVPYWEKTFDIDLSAPQIGVVNVTDADSVWMEMDDEEDLPSAEELEDWLEDVLEGEINTEDDDDEDDDDDDDD
notes: GST was cleaved with Factor Xa for single channel and 45Ca studies; probably GST-CSQ1 on Glutathione Sepharose; the discussion calls WT 'full-length CSQ1', while the numbering (C-terminus = 367) is that of the mature protein; also called WT CSQ1; WT CSQ; source: rabbit CSQ1 cDNA in pGEX5x1, expressed as previously described [34], purified
B2: the binding result in assay [3] is reported as “binds”. For the same molecule, in assay [2], the “activation of purified RyR1 in lipid bilayers by WT CSQ1” value was approximately 2.8 fold.

B3: CSQ1DA3 (rabbit CSQ1 with three alternate C-terminal acidic residues changed to alanine) (natural protein, UniProt P07221 29-395, looked up)
chain: EEGLDFPEYDGVDRVINVNAKNYKNVFKKYEVLALLYHEPPEDDKASQRQFEMEELILELAAQVLEDKGVGFGLVDSEKDAAVAKKLGLTEEDSIYVFKEDEVIEYDGEFSADTLVEFLLDVLEDPVELIEGERELQAFENIEDEIKLIGYFKNKDSEHYKAFKEAAEEFHPYIPFFATFDSKVAKKLTLKLNEIDFYEAFMEEPVTIPDKPNSEEEIVNFVEEHRRSTLRKLKPESMYETWEDDMDGIHIVAFAEEADPDGYEFLEILKSVAQDNTDNPDLSIIWIDPDDFPLLVPYWEKTFDIDLSAPQIGVVNVTDADSVWMEMDDEEDLPSAEELEDWLEDVLEGEINTEDDDDEDDDADADA
notes: GST state as for m1; also called CSQ1D∆3; source: rabbit CSQ1 cDNA in pGEX5x1, expressed as previously described [34], purified
Take B3: the binding result in assay [3] was “binds”.
